Laboratory results published in patent US20260217852A1 (ZONHON BIOPHARMA INSTITUTE, published 2026).

Experiments:
CD3 protein = experiment: BLI (ForteBio), biotinylated CD3 protein on SA biosensors, antibody at 500 nM
Description: CD3 protein was first biotinylated using EZ-Link NHS-PEG12-Biotin, and the biotinylated protein was immobilized on SA biosensors. The biosensors were then equilibrated in 1× Kinetics Buffer, followed by incubation with the humanized bispecific antibody solution to allow binding. The concentration of the humanized bispecific antibody solution was 500 nM. Afterward, the biosensors were placed in 1× Kinetics Buffer for dissociation. Data were analyzed using Fortebio Data Analysis 8.0 software to calculate the affinity constant values.

[1] = target: T1, CD26 on cells (786-0, OS-RC-2, UT16, NCI-H226 tumor cells; PBMCs) (human, UniProt P27487 1-766); experiment: flow cytometry, PBMCs in a mixed system with 786-0 cells, antibody at 0.3 ug/mL
T1 construct: whole, on cells; The background says that CD26 commonly exists as a homodimer; also called CD26 target on tumor cells; CD26 on PBMCs
T1 sequence (P27487 whole entry): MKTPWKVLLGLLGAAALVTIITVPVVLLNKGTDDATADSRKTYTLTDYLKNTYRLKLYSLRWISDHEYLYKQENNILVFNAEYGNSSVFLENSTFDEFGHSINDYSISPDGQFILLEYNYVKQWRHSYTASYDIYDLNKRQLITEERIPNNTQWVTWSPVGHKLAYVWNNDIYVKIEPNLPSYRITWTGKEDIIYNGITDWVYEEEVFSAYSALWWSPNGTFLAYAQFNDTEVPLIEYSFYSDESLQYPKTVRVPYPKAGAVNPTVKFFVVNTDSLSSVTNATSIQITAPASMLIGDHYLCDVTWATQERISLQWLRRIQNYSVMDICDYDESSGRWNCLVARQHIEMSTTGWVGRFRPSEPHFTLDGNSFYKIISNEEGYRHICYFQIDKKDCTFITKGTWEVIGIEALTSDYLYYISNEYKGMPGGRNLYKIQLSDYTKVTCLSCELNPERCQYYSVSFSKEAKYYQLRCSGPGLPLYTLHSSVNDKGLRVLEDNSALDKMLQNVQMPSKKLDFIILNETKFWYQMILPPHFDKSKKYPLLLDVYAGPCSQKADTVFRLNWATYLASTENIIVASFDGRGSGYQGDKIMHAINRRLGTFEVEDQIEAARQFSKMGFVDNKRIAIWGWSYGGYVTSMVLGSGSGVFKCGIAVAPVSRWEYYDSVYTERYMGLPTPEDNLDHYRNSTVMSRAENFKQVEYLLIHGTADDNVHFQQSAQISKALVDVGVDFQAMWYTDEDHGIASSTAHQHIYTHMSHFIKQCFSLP

B1: humanized CD26-CD3 BiTE bispecific antibody 19G300 (bispecific antibody)
scFv: DIQMTQSPSSLSASPGDRVTISCRASQDIGNFLTWYQQKPGQAPKLLIYYRSRLHSGVPSRFSGSGSGTDYTLTISSLEPEDFATYYCQQDNTLPWTFGQGTKVEIKGGGGSGGGGSGGGGSEVQLVESGGGLVQPGGSLRLSCAASGFTFTNYYMSWVRQAPGKGLEWVAFIRDKANGYTTEYSASVKGRFTISRDNSKNTLYLQMNSLRAEDTAVYYCARVLRYLGYNFDYWGQGTLVTVSSGGGGSDVQLVQSGAEVKKPGASVKVSCKASGYTFTRYTMHWVRQAPGQGLEWIGYINPSRGYTNYADSVKGRFTITTDKSTSTAYMELSSLRSEDTATYYCARYYDDHYCLDYWGQGTTVTVSSGGGGSGGGGSGGGGSDIVLTQSPATLSLSPGERATLSCRASQSVSYMNWYQQKPGKAPKRWIYDTSKVASGVPARFSGSGSGTDYSLTINSLEAEDAATYYCQQWSSNPLTFGGGTKVEIK
notes: Single chain of about 55 kDa; also called humanized bispecific antibody 19G300
Kd (CD3 protein): 1.61 nM
koff (CD3 protein): 0.000137 s⁻¹
kon (CD3 protein): 84800 M⁻¹ s⁻¹

B2: full-length humanized anti-CD26 antibody 21G428-429 (antibody, human IgG1, kappa, V domains shown)
VH: EVQLVQSGAELVKPGASVKLSCAASGFNIKDTYIYWVRQAPGQGLEWVGRIEPMNGNTKYDPKFQGRFTMTANTSKNTAYLQLSSLRSEDTAVYYCSRGGWLLLYVMDYWGQGTLVTVSS
VL: DIVMTQSPSSLSVTPGERVSISCRSDKSLLHSNGNTYLYWFLQKPGQSPQVLIYRMSNLASGVPDRFSGSGSGTDFTLTISRVEAEDVGVYYCFQQLEYPYTFGQGTKLEIKR
notes: Derived from mouse antibody No. 62; About 150 kDa
binding result [1]: binds
